Measurements from US20200255543A1 (ROCKEFELLER UNIVERSITY, published 2020).

What was measured:
[1] = molecular target: T1, recombinant human MERTK (human, UniProt Q12866 21-505, limits assumed); assay: biolayer interferometry, M6 loaded on AMQ sensor at 1 ug/mL, hMer in solution at 5 nM, local 1:1 fit
T1 construct: Analyte in solution in biolayer interferometry; also called hMer
T1 sequence: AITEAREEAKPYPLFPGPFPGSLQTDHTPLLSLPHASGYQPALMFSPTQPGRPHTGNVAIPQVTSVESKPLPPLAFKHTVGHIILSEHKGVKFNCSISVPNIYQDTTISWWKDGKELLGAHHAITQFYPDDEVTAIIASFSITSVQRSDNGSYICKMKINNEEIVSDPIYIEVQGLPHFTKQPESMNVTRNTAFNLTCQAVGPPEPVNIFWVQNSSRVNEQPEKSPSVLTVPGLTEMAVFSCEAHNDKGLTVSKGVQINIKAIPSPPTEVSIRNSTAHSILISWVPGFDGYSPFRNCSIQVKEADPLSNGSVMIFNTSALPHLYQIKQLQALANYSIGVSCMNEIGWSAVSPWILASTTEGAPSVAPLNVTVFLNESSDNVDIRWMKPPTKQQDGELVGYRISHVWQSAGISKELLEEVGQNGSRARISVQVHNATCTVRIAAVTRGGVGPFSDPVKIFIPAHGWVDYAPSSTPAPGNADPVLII
Method: (§1) FIG. 11: M6 binds to MERTK with high affinity. M6 binds to human MERTK with high affinity. A diagram showing antibody binding kinetics for M6 (Mer-M6) against human MERTK (hMer) using biolayer interferometry. Purified M6 was loaded on an AMQ sensor at a concentration of 1 microgram/mL to test binding against analytes in solution. All analytes were prepared at 5 nM with a 2-fold dilution series for a total of 7 concentrations. Kinetic fits were calculated using a 1:1 model, with Local fits for each concentration as well as an overall Global fit.

[2] = molecular target: T1, recombinant human MERTK; assay: biolayer interferometry, M6 loaded on AMQ sensor, hMer analyte from 5 nM in 2-fold dilutions, 1:1 model, global fit
Method: as §1

[3] = molecular target: T1, recombinant human MERTK; assay: biolayer interferometry, M6 loaded on AMQ sensor at 1 ug/mL, hMer in solution at 2.5 nM, local 1:1 fit
Method: as §1

[4] = molecular target: T1, recombinant human MERTK; assay: biolayer interferometry, M6 loaded on AMQ sensor at 1 ug/mL, hMer in solution at 1.25 nM, local 1:1 fit
Method: as §1

[5] = molecular target: T1, recombinant human MERTK; assay: biolayer interferometry, M6 loaded on AMQ sensor at 1 ug/mL, hMer in solution at 0.625 nM, local 1:1 fit
Method: as §1

[6] = molecular target: T1, recombinant human MERTK; assay: biolayer interferometry, M6 loaded on AMQ sensor at 1 ug/mL, hMer in solution at 0.0781 nM, local 1:1 fit
Method: as §1

[7] = molecular target: T1, recombinant human MERTK; assay: biolayer interferometry, M6 loaded on AMQ sensor at 1 ug/mL, hMer in solution at 0.1563 nM, local 1:1 fit
Method: as §1

[8] = molecular target: T1, recombinant human MERTK; assay: biolayer interferometry, M6 loaded on AMQ sensor at 1 ug/mL, hMer in solution at 0.3125 nM, local 1:1 fit
Method: as §1

[9] = molecular target: T1, recombinant human MERTK; assay: biolayer interferometry, M6 loaded on AMQ sensor at 1 ug/mL, hMer in solution at 5 to 0.0781 nM, global 1:1 fit
Method: as §1

B1: monoclonal antibody M6 (antibody, V domains shown)
VH: QVKLEESGPELKKPGETVKISCKASGYTFTNYGMNWVKQAPGKGLKWMGWINTYTGEPTYADDFKGRFVFSLETSASTAYLQINNLKNEDMATYFCARKSTVVSRYFDVWGAGTTVTVSS
VL: DIVLTQTHKFMSTSVGDRVSITCKASQDVGDAVTWCQQKPGQPPKLLIYWASTRHTGVPDRFTGSGSGTDFTLTINNVQSEDLADYFCQQYRSYPLTFGAGTKLELKR
notes: Mouse hybridoma monoclonal antibody; Hybridoma supernatant was used in the ELISA screen, purified antibody in biolayer interferometry; also called Mer-M6
[1]
  Kd: 0.634 pM
  koff: 1.5e-06 s⁻¹
  kon: 2.37e+06 M⁻¹ s⁻¹
[2]
  Kd: 4.6 pM
[3]
  Kd: 2.09 pM
  koff: 4.46e-06 s⁻¹
  kon: 2.13e+06 M⁻¹ s⁻¹
[4]
  Kd: 49.8 pM
  koff: 0.000156 s⁻¹
  kon: 3.12e+06 M⁻¹ s⁻¹
[5]
  Kd: 0.0131 pM
  koff: 7.27e-08 s⁻¹
  kon: 5.57e+06 M⁻¹ s⁻¹
[6]
  Kd: 0.823 pM
  koff: 2.49e-05 s⁻¹
  kon: 3.03e+07 M⁻¹ s⁻¹
[7]
  Kd: 0.0652 pM
  koff: 9.22e-07 s⁻¹
  kon: 1.41e+07 M⁻¹ s⁻¹
[8]
  Kd: 0.00312 pM
  koff: 3.3e-08 s⁻¹
  kon: 1.06e+07 M⁻¹ s⁻¹
[9]
  koff: 9.55e-06 s⁻¹
  kon: 2.07e+06 M⁻¹ s⁻¹
